Measured values as given in patent publication US20210238289A1 (Biogen, published 2021).
Where a chain is given by its changes, count along the chain named. In names and notes the source's numbering stands.

B1: EAG2377 (hu5c8 IgG1 T299N) (antibody)
heavy: not shown
light: DIVLTQSPATLSVSPGERATISCRASQRVSSSTYSYMHWYQQKPGQPPKLLIKYASNLESGVPARFSGSGSGTDFTLTISSVEPEDFATYYCQHSWEIPPTFGGGTKLEIKRTVAAPSVFIFPPSDEQLKSGTASVVCLLNNFYPREAKVQWKVDNALQSGNSQESVTEQDSKDSTYSLSSTLTLSKADYEKHKVYACEVTHQGLSSPVTKSFNRGEC
B2: EAG2389 (hu5c8 IgG1 T299Q) (antibody)
heavy: not shown
light: B1 light
B3: EAG2380 (hu5c8 IgG1 T299F) (antibody)
heavy: not shown
light: B1 light
B4: EAG2378 (hu5c8 IgG1 T299R) (antibody)
heavy: not shown
light: B1 light
B5: EAG2379 (hu5c8 IgG1 T299E) (antibody)
heavy: not shown
light: B1 light
B6: EAG2300 (hu5c8 IgG4 chimeric hinge + IgG1 CH3, glycosylated) (antibody)
heavy: QVQLVQSGAEVVKPGASVKLSCKASGYIFTSYYMYWVKQAPGQGLEWIGEINPSNGDTNFNEKFKSKATLTVDKSASTAYMELSSLRSEDTAVYYCTRSDGRNDMDSWGQGTLVTVSSASTKGPSVFPLAPCSRSTSESTAALGCLVKDYFPEPVTVSWNSGALTSGVHTFPAVLQSSGLYSLSSVVTVPSSSLGTKTYTCNVDHKPSNTKVDKRVESKYGPPCPPCPAPPVAGPSVFLFPPKPKDTLMISRTPEVTCVVVDVSQEDPEVQFNWYVDGVEVHNAKTKPREEQFNSTYRVVSVLTVLHQDWLNGKEYKCKVSNKGLPSSIEKTISKAKGQPREPQVYTLPPSRDELTKNQVSLTCLVKGFYPSDIAVEWESNGQPENNYKTTPPVLDSDGSFFLYSKLTVDKSRWQQGNVFSCSVMHEALHNHYTQKSLSLSPG
light: B1 light
modifications: N-terminal Q largely converted to pyroglutamic acid; N-linked G0F/G1F/G2F glycans (mass spectrometry)
notes: also called pEAG2300; copies: 2 + 2
B7: YC403 (hu5c8 IgG4.P S228P, T299A, T307P, L309K, D399S, aglycosylated) (antibody)
heavy: QVQLVQSGAEVVKPGASVKLSCKASGYIFTSYYMYWVKQAPGQGLEWIGEINPSNGDTNFNEKFKSKATLTVDKSASTAYMELSSLRSEDTAVYYCTRSDGRNDMDSWGQGTLVTVSSASTKGPSVFPLAPCSRSTSESTAALGCLVKDYFPEPVTVSWNSGALTSGVHTFPAVLQSSGLYSLSSVVTVPSSSLGTKTYTCNVDHKPSNTKVDKRVESKYGPPCPPCPAPEFLGGPSVFLFPPKPKDTLMISRTPEVTCVVVDVSQEDPEVQFNWYVDGVEVHNAKTKPREEQFNSAYRVVSVLPVKHQDWLNGKEYKCKVSNKGLPSSIEKTISKAKGQPREPQVYTLPPSQEEMTKNQVSLTCLVKGFYPSDIAVEWESNGQPENNYKTTPPVLSSDGSFFLYSRLTVDKSRWQEGNVFSCSVMHEALHNHYTQKSLSLSLG
light: B1 light
modifications: N-terminal Q largely converted to pyroglutamic acid (mass spectrometry)
notes: copies: 2 + 2
B8: IgG4.P T299A (aglycosylated hu5c8 IgG4.P S228P, T299A) (antibody)
heavy: not shown
light: B1 light
notes: also called agly IgG4.P; IgG4.P agly (S228P, T299A); copies: 2 + 2
B9: YC401 (hu5c8 IgG4.P S228P, T299A, T307P, D399S, aglycosylated) (antibody)
heavy: B7 heavy with K307L
light: B1 light
modifications: N-terminal Q largely converted to pyroglutamic acid (mass spectrometry)
notes: copies: 2 + 2
B10: IgG1 T299A (aglycosylated hu5c8 IgG1) (antibody)
heavy: not shown
light: B1 light
notes: also called IgG1 agly (T299A); agly IgG1
B11: EC331 (hu5c8 IgG4.P T299K, T307P, IgG4 CH2/IgG1 CH3 chimera, aglycosylated) (antibody)
heavy: B7 heavy with A297K, K307L, Q353R, E354D, M356L, S397D, R407K, E417Q, L443P
light: B1 light
modifications: N-terminal Q largely converted to pyroglutamic acid (mass spectrometry)
notes: copies: 2 + 2

biological target: T1, CD64 (FcγRI) (UniProt P12314 16-288, limits assumed); experiment: solution competition SPR (Biacore)
Protocol: (§1) Binding to Fcγ receptors was analyzed using solution affinity surface plasmon resonance (ref Day E S, Cachero T G, Qian F, Sun Y, Wen D, Pelletier M, Hsu Y M, Whitty A. Selectivity of BAFF/BLyS and APRIL for binding to the TNF family receptors BAFFR/BR3 and BCMA. Biochemistry. 2005 Feb. 15; 44(6):1919-31.) The method utilizes conditions of so-called “mass-transport-limited” binding, in which the initial rate of ligand binding (protein binding to the senor chip) is proportional to the concentration of ligand in solution (ref BIApplications Handbook (1994) Chapter 6: Concentration measurement, pp 6-1-6-10, Pharmacia Biosensor AB). Under these conditions, binding of the soluble analyte (protein flowing over chip surface) to the immobilized protein on the chip is fast compared to the diffusion of the analyte into the dextran matrix on the chip surface. Therefore, the diffusion properties of the analyte and the concentration of analyte in solution flowing over the chip surface determine the rate at which analyte binds to the chip. In this experiment, the concentration of free Fc receptor in solution is determined by the initial rate of binding to a CM5 Biacore chip containing an immobilized IgG1 MAb. Into these Fc receptor solutions were titrated the stability engineered constructs (see Table 10.1 below). […] Initial binding rates were obtained from raw sensorgram data (FIG. 14). […] The results are shown in Table 10.1 and reported as the average of two titrations.

Row | IC50 [µM] | Binder
1 | 586 | B1
2 | 455 | B2
3 | 345 | B3
4 | 5970 | B4
5 | 196 | B5

biological target: T1, CD64 (FcγRI); experiment: solution competition SPR (Biacore); construct titrated into receptor, free receptor read on immobilized IgG1 MAb
Protocol: as §1

Row | IC50 [µM] | Binder
6 | 3020 | B6
7 | 434 | B7
8 | 739 | B8
9 | 377 | B9
10 | 205 | B10
11 | 2600 | B11
